In patent publication US20220017591A1 (AstraZeneca / MedImmune, published 2022):
Where two headings read alike, the source gives them in different places.

T1: human RXFP1 (human, UniProt Q9HBX9 1-757)
T1 sequence (looked up): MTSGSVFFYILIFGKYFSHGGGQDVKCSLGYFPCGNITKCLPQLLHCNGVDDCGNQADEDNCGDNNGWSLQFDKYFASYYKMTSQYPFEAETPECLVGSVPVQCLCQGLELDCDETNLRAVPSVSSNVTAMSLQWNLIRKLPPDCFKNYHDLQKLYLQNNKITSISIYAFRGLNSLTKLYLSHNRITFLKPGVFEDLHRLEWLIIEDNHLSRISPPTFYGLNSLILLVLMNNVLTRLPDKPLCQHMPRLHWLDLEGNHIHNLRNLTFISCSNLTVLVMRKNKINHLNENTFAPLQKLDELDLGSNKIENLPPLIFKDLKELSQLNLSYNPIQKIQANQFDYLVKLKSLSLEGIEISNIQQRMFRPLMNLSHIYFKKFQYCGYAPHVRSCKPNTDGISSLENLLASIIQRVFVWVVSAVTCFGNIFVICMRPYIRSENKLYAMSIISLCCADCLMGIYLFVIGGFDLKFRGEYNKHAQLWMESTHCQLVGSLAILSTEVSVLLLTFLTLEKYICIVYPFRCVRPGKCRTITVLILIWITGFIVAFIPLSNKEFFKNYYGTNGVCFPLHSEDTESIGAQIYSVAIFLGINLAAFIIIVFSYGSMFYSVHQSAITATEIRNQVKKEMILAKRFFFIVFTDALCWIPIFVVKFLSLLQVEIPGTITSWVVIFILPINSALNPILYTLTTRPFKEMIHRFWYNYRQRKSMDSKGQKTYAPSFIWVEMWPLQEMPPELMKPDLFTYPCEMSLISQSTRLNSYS

T2: mouse RXFP1 (mouse, UniProt Q6R6I7 1-758)
T2 sequence (looked up): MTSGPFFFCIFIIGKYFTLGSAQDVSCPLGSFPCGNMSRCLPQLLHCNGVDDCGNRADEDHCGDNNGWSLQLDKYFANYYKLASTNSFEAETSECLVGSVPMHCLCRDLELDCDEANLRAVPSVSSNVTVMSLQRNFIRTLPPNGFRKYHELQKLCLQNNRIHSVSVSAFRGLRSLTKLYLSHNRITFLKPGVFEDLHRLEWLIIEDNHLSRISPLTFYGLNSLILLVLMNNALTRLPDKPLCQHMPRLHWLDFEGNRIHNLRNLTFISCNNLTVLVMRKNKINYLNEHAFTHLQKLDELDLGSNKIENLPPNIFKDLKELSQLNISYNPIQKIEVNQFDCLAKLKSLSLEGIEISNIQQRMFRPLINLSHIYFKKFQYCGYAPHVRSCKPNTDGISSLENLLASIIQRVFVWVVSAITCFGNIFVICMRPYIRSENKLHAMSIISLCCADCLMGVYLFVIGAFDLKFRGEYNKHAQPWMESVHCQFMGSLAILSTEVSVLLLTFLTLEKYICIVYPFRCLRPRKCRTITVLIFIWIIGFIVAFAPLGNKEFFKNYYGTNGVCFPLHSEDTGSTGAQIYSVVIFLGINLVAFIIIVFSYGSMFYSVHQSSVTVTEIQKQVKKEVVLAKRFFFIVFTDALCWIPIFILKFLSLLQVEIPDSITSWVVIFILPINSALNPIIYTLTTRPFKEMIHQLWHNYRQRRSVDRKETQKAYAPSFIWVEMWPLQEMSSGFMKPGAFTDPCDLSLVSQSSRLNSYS


Legend:
Assay in all cases: cell-based or functional assay
[1] = biological target: T1, human RXFP1
[2] = biological target: T2, mouse RXFP1
[3] = biological target: T3, human RXFP2 (human, UniProt Q8WXD0 1-754)
T3 sequence (Q8WXD0 whole entry): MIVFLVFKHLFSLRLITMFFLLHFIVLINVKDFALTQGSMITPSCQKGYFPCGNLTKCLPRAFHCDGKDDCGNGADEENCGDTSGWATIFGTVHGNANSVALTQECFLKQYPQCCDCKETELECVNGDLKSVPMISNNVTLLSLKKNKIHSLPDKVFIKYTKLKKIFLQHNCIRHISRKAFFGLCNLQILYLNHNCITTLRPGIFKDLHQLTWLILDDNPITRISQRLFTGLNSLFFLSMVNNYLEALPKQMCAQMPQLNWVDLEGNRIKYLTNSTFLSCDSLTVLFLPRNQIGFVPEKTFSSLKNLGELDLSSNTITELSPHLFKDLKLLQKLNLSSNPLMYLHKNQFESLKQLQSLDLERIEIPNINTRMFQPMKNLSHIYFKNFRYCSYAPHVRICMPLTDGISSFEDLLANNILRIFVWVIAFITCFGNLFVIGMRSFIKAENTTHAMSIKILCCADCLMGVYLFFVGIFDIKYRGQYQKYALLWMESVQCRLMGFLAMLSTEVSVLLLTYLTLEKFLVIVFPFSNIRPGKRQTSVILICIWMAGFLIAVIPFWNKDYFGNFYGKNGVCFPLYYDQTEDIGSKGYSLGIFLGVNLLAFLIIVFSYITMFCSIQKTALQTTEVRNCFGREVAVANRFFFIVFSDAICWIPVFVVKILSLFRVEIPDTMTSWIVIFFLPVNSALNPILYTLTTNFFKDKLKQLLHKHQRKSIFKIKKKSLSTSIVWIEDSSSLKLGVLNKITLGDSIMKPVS

[4] = biological target: T1, human RXFP1; remark: listed apart in the source
[5] = biological target: T2, mouse RXFP1; remark: listed apart in the source
[6] = biological target: T3, human RXFP2; remark: listed apart in the source

| EC50 hRXFP1 (M), cAMP assay [1] [M] | EC50 mRXFP1 (M), cAMP assay [2] [M] | EC50 hRXFP2 (M), cAMP assay [3] [M] | EC50 hRXFP1 (M), cAMP assay [4] [M] | EC50 mRXFP1 (M), cAMP assay [5] [M] | EC50 hRXFP2 (M), cAMP assay [6] [M] | Binder |
| --- | --- | --- | --- | --- | --- | --- |
| 6.54e-11 | 4.25e-11 | 1.08e-07 |  |  |  | RELAX0039 (Fc fusion) chain 1: DKTHTACPPCPAPEFEGGPSVFLFPPKPKDTLMISRTPEVTCVVVDVSHEDPEVKFNWYVDGVEVHNAKTKPREEQYNSTYRVVSVLTVLHQDWLNGKEYKCKVSNKALPASIEKTISKAKGQPREPQVYTLPPCREEMTKNQVSLWCLVKGFYPSDIAVEWESNGQPENNYKTTPPVLDSDGSFFLYSKLTVDKSRWQQGNVFSCSVMHEALHNHYTQKSLSLSPGGGGGSGGGGSGGGGSGGGGGSQLYSALANMCCHVGCTKRSLARFC chain 2: DKTHTCPPCPAPEFEGGPSVFLFPPKPKDTLMISRTPEVTCVVVDVSHEDPEVKFNWYVDGVEVHNAKTKPREEQYNSTYRVVSVLTVLHQDWLNGKEYKCKVSNKALPASIEKTISKAKGQPREPQVCTLPPSREEMTKNQVSLSCAVKGFYPSDIAVEWESNGQPENNYKTTPPVLDSDGSFFLVSKLTVDKSRWQQGNVFSCSVMHEALHNHYTQKSLSLSPGGGGGSGGGGSGGGGSGGGGGSSWMEEVIKLCGRELVRAQIAICGMSTWS |
| 5.92e-11 | 2.92e-11 | > 1.27e-07 |  |  |  | RELAX0040 (Fc fusion) chain 1: DKTHTACPPCPAPEFEGGPSVFLFPPKPKDTLMISRTPEVTCVVVDVSHEDPEVKFNWYVDGVEVHNAKTKPREEQYNSTYRVVSVLTVLHQDWLNGKEYKCKVSNKALPASIEKTISKAKGQPREPQVYTLPPCREEMTKNQVSLWCLVKGFYPSDIAVEWESNGQPENNYKTTPPVLDSDGSFFLYSKLTVDKSRWQQGNVFSCSVMHEALHNHYTQKSLSLSPGGGGGSGGGGSGGGGSGGGGGSQLYSALANLCCHVGCTKRSLARFC chain 2: DKTHTCPPCPAPEFEGGPSVFLFPPKPKDTLMISRTPEVTCVVVDVSHEDPEVKFNWYVDGVEVHNAKTKPREEQYNSTYRVVSVLTVLHQDWLNGKEYKCKVSNKALPASIEKTISKAKGQPREPQVCTLPPSREEMTKNQVSLSCAVKGFYPSDIAVEWESNGQPENNYKTTPPVLDSDGSFFLVSKLTVDKSRWQQGNVFSCSVMHEALHNHYTQKSLSLSPGGGGGSGGGGSGGGGSGGGGGSSWMEEVIKLCGRELVRAQIAICGMSTWS |
|  |  |  | 7.12e-11 | 1.49e-11 | 3.33e-08 | RELAX0105 (Fc fusion) chain 1: DKTHTCPPCPAPEFEGGPSVFLFPPKPKDTLMISRTPEVTCVVVDVSHEDPEVKFNWYVDGVEVHNAKTKPREEQYNSTYRVVSVLTVLHQDWLNGKEYKCKVSNKALPASIEKTISKAKGQPREPQVYTLPPCREEMTKNQVSLWCLVKGFYPSDIAVEWESNGQPENNYKTTPPVLDSDGSFFLYSKLTVDKSRWQQGNVFSCSVMHEALHNHYTQKSLSLSPGGGGGSGGGGSGGGGGSQLYSALANKCCHVGCTKRSLARFC chain 2: DKTHTCPPCPAPEFEGGPSVFLFPPKPKDTLMISRTPEVTCVVVDVSHEDPEVKFNWYVDGVEVHNAKTKPREEQYNSTYRVVSVLTVLHQDWLNGKEYKCKVSNKALPASIEKTISKAKGQPREPQVCTLPPSREEMTKNQVSLSCAVKGFYPSDIAVEWESNGQPENNYKTTPPVLDSDGSFFLVSKLTVDKSRWQQGNVFSCSVMHEALHNHYTQKSLSLSPGAPAPAPAPAPAPAPAPAPAGSSWMEEVIKLCGRELVRAQIAICGMSTWS |
|  |  |  | 8.09e-11 | 3.87e-11 | 1.22e-07 | RELAX0107 (Fc fusion) chain 1: DKTHTCPPCPAPEFEGGPSVFLFPPKPKDTLMISRTPEVTCVVVDVSHEDPEVKFNWYVDGVEVHNAKTKPREEQYNSTYRVVSVLTVLHQDWLNGKEYKCKVSNKALPASIEKTISKAKGQPREPQVYTLPPCREEMTKNQVSLWCLVKGFYPSDIAVEWESNGQPENNYKTTPPVLDSDGSFFLYSKLTVDKSRWQQGNVFSCSVMHEALHNHYTQKSLSLSPGGGGGGSQLYSALANKCCHVGCTKRSLARFC chain 2: DKTHTCPPCPAPEFEGGPSVFLFPPKPKDTLMISRTPEVTCVVVDVSHEDPEVKFNWYVDGVEVHNAKTKPREEQYNSTYRVVSVLTVLHQDWLNGKEYKCKVSNKALPASIEKTISKAKGQPREPQVCTLPPSREEMTKNQVSLSCAVKGFYPSDIAVEWESNGQPENNYKTTPPVLDSDGSFFLVSKLTVDKSRWQQGNVFSCSVMHEALHNHYTQKSLSLSPGAPAPAPAPAPAPAPAPAPAGSSWMEEVIKLCGRELVRAQIAICGMSTWS |
|  |  |  | 6.96e-11 | 1.98e-11 | 4.94e-08 | RELAX0106 (Fc fusion) chain 1: DKTHTCPPCPAPEFEGGPSVFLFPPKPKDTLMISRTPEVTCVVVDVSHEDPEVKFNWYVDGVEVHNAKTKPREEQYNSTYRVVSVLTVLHQDWLNGKEYKCKVSNKALPASIEKTISKAKGQPREPQVYTLPPCREEMTKNQVSLWCLVKGFYPSDIAVEWESNGQPENNYKTTPPVLDSDGSFFLYSKLTVDKSRWQQGNVFSCSVMHEALHNHYTQKSLSLSPGGGGGSGGGGGSQLYSALANKCCHVGCTKRSLARFC chain 2: DKTHTCPPCPAPEFEGGPSVFLFPPKPKDTLMISRTPEVTCVVVDVSHEDPEVKFNWYVDGVEVHNAKTKPREEQYNSTYRVVSVLTVLHQDWLNGKEYKCKVSNKALPASIEKTISKAKGQPREPQVCTLPPSREEMTKNQVSLSCAVKGFYPSDIAVEWESNGQPENNYKTTPPVLDSDGSFFLVSKLTVDKSRWQQGNVFSCSVMHEALHNHYTQKSLSLSPGAPAPAPAPAPAPAPAPAPAGSSWMEEVIKLCGRELVRAQIAICGMSTWS |
|  |  |  | 1.88e-09 | 1.11e-09 | > 6.07e-08 | RELAX0110 (Fc fusion) chain 1: DKTHTCPPCPAPEFEGGPSVFLFPPKPKDTLMISRTPEVTCVVVDVSHEDPEVKFNWYVDGVEVHNAKTKPREEQYNSTYRVVSVLTVLHQDWLNGKEYKCKVSNKALPASIEKTISKAKGQPREPQVYTLPPCREEMTKNQVSLWCLVKGFYPSDIAVEWESNGQPENNYKTTPPVLDSDGSFFLYSKLTVDKSRWQQGNVFSCSVMHEALHNHYTQKSLSLSPGGGGGSGGGGGSQLYSALANKCCHVGCTKRSLARFC chain 2: DKTHTCPPCPAPEFEGGPSVFLFPPKPKDTLMISRTPEVTCVVVDVSHEDPEVKFNWYVDGVEVHNAKTKPREEQYNSTYRVVSVLTVLHQDWLNGKEYKCKVSNKALPASIEKTISKAKGQPREPQVYTLPPCREEMTKNQVSLWCLVKGFYPSDIAVEWESNGQPENNYKTTPPVLDSDGSFFLYSKLTVDKSRWQQGNVFSCSVMHEALHNHYTQKSLSLSPGAAPAPAPAPAPAPAGSSWMEEVIKLCGRELVRAQIAICGMSTWS |
|  |  |  | 1.93e-09 | 1.24e-09 | > 6.06e-08 | RELAX0111 (Fc fusion) chain 1: DKTHTCPPCPAPEFEGGPSVFLFPPKPKDTLMISRTPEVTCVVVDVSHEDPEVKFNWYVDGVEVHNAKTKPREEQYNSTYRVVSVLTVLHQDWLNGKEYKCKVSNKALPASIEKTISKAKGQPREPQVYTLPPCREEMTKNQVSLWCLVKGFYPSDIAVEWESNGQPENNYKTTPPVLDSDGSFFLYSKLTVDKSRWQQGNVFSCSVMHEALHNHYTQKSLSLSPGGGGGGSQLYSALANKCCHVGCTKRSLARFC chain 2: DKTHTCPPCPAPEFEGGPSVFLFPPKPKDTLMISRTPEVTCVVVDVSHEDPEVKFNWYVDGVEVHNAKTKPREEQYNSTYRVVSVLTVLHQDWLNGKEYKCKVSNKALPASIEKTISKAKGQPREPQVYTLPPCREEMTKNQVSLWCLVKGFYPSDIAVEWESNGQPENNYKTTPPVLDSDGSFFLYSKLTVDKSRWQQGNVFSCSVMHEALHNHYTQKSLSLSPGAAPAPAPAPAPAPAGSSWMEEVIKLCGRELVRAQIAICGMSTWS |
